Measurements reported in article PMC6086726.
pKd: −log10 of the molar value.

Target: Type I-F Csy surveillance complex of Pseudomonas aeruginosa PA14 (Csy1-4 with crRNA) (Pseudomonas aeruginosa PA14) (UniProt Q02ML9)
Assay: SPR

AcrIF4 (gene 37 from phage JBD26) (natural protein)
pKd: 6.40
